Assay results published in PMC11076555, “Dishevelled2 activates WGEF via its interaction with a unique internal peptide motif of the GEF” (Communications Biology, 2024).

Legend:
xWGEF330 = experiment: In vitro guanine nucleotide exchange (GEF) assay, activation of xWGEF330 by Dvl2^PDZ; format: biochemical, Xenopus laevis; conditions: 5 µM xWGEF330, 2 µM Mant-GDP loaded RhoA, 25 °C, triplicates
Protocol: Guanine nucleotide exchange assays were carried out using RhoA loaded with fluorescently labelled Mant-GDP[63],[64]. Briefly, 150 μM of RhoA was incubated with 5 Molar excess of fluorescent label, i.e., Mant-GDP in a buffer containing 10 mM Tris pH 8, 150 mM NaCl, 2 mM DTT, 5 mM EDTA, 0.5 mM MgCl2 and 5% Glycerol. The reaction was incubated on ice for 30 min, followed by the addition of 10 mM MgCl2 to stop the reaction. Excess Mant-GDP was removed through buffer exchange and Mant-GDP loaded RhoA was concentrated and stored at −80 °C. For assays, 2 μM of Mant-GDP loaded RhoA was incubated with 5 μM of xWGEF in the presence or absence of hDvl2^PDZ (0 μM, 25 μM and 50 μM) for 30 min at 25 °C. […] Once the fluorescence was stable, excess GTP (10x of labelled GTPase) was added to start the exchange reaction. […] A decrease in fluorescence was recorded using a BioTek Cytation5 plate reader with excitation and emission of 360 and 440 nm, respectively. Fluorescence was normalized and decrease was fitted using a single exponential decay mode in GraphPad Prism. […]
Guanine nucleotide exchange assays were performed in triplicates. Fluorescence decrease was fitted using a single exponential decay mode in GraphPad Prism. […]

[1] = target: T1, Dvl2^PDZ (PDZ domain of human Dishevelled2) (Homo sapiens, UniProt O14641); experiment: Microscale thermophoresis (MST) binding to Dvl2^PDZ; conditions: Monolith NT.115, 50 nM Red-maleimide labelled Dvl2^PDZ, 10 mM Tris–HCl pH 8, 150 mM NaCl, 2 mM DTT, 5% glycerol, 0.05% Tween20, 30 min at 25 °C, peptides diluted 1:2 16 times from ~3.4 mM, hWGEF 138–0.0042 µM, Kd fit model, triplicates, read-out: Kd (dissociation constant) for Dvl2^PDZ
T1 construct: introducing a stop codon after C354 residue of Dvl2^PDZ to eliminate the fused peptide, cloned at the C-termini of PDZ; 6xHis (N, cleaved yes); host or cells: E. coli Rosetta (DE3)
T1 sequence (O14641 267-339 limits assumed): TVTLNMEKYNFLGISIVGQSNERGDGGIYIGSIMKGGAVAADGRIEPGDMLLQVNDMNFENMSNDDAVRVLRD
Protocol: MST experiments were performed using Monolith NT.115 instrument from Nanotemper technologies. Dvl2^PDZ domain was fluorescently labelled as per the instructions, using Monolith Redmaleimide 2nd generation-cysteine reactive label. The experimental condition consists of 10 mM Tris–HCl pH8, 150 mM NaCl, 2 mM DTT, 5% Glycerol and 0.05% Tween20. For Dvl2^PDZ-peptide affinity determination, synthetic WGEF peptides were serially diluted (1:2) 16 times, starting from an approximate concentration of 3.4 mM. 50 nM of fluorescently labelled Dvl2^PDZ domain was added to the serially diluted peptides, followed by incubation at 25 °C for 30 minutes. Thermophoresis signals were recorded at 20% of excitation power and 40% MST at 25 °C. Data was fitted using the Kd fit model in the MO. Affinity Analysis v2.3 software. Like peptides, hWGEF (330–581) protein was serially diluted to obtain a protein concentration range of 138–0.0042 µM. Experimental conditions were the same as mentioned above for peptides. […]
Guanine nucleotide exchange assays were performed in triplicates. Fluorescence decrease was fitted using a single exponential decay mode in GraphPad Prism. […] Statistical significance was calculated using ordinary One-way ANOVA with multiple comparisons. * Represents adjust P value with statistical significance of ****P < 0.0001, ***P < 0.001, **P < 0.01 and *P ≤ 0.01. […]

B1: Dvl2^PDZ: recombinant PDZ domain of human Dishevelled2 (protein)
chain: MSLNIITVTLNMEKYNFLGISIVGQSNERGDGGIYIGSIMKGGAVAADGRIEPGDMLLQVNDMNFENMSNDDAVRVLRDIVHKPGPIVLTVAKC
modifications: Monolith Red-maleimide 2nd generation cysteine-reactive fluorescent label (in the MST experiments); left off: His6, N-terminal, cleaved
notes: recombinant PDZ domain of human Dishevelled2
- Change in GEF activity of xWGEF330 (xWGEF330; 25 µM Dvl2^PDZ): did not show any observable change
- Change in GEF activity of xWGEF330 (xWGEF330; 50 µM Dvl2^PDZ (10-fold excess)): fourfold increase

B2: hWGEF: recombinant human WGEF construct, residues from 330 to 581 (protein)
chain: PPRANLSPSSSFRAQRSARGSTFSLWQDIPDVRGSGVLATLSLRDCKLQEAKFELITSEASYIHSLSVAVGHFLGSAELSECLGAQDKQWLFSKLPEVKSTSERFLQDLEQRLEADVLRFSVCDVVLDHCPAFRRVYLPYVTNQAYQERTYQRLLLENPRFPGILARLEESPVCQRLPLTSFLILPFQRITRLKMLVENILKRTAQGSEDEDMATKAFNALKELVQECNASVQSMKRTEELIHLSKKIHFEG
modifications: left off: GST, N-terminal, cleaved
- Kd [1]: 7.9 ± 0.3 µM
